Series [1] deals with T1, IBV nsp9 wild-type (avian infectious bronchitis virus (IBV) …, UniProt P0C6Y3 3675-3785).
T1 sequence: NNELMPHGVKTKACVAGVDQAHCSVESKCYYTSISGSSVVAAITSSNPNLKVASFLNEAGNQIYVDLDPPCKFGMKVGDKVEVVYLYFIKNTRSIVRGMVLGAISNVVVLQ
As to the kind of experiment: BLI.

Series [2] deals with T1, IBV nsp9 wild-type. Kind of series: zone-interference gel electrophoresis.

Take CGACUCAUGGACCUUGGCAG (ssRNA, phosphorothioate linkages at last two 3' residues (A19, G20)) [20-mer RNA, biotin (BLI)]: in the series with IBV nsp9 wild-type [1], binding was put at a Kd of 28 µM. With CGACTCATGGACCTTGGCAG (ssDNA) [20-mer ssDNA], the binding result with IBV nsp9 wild-type [2] is recorded as “binds”.

The record behind these values is article PMC5405427.
